We go through 2 molecules from US20060029946A1 (Scripps Research, published 2006).

Test [1] deals with T1, Cdc42-GTPγS (activated Cdc42) (UniProt P60953 1-191).
Test [2] has as its target T1, Cdc42-GTPγS (activated Cdc42). Put plainly: apparent equilibrium binding constant; fluorescence titration of a fixed concentration of labeled WASP fragment with cdc42-GTPγS.
The next test addresses RhoA (activated GTPase) (UniProt P61586 1-193). Put plainly: fluorescence response of the I-SO WASP biosensor with activated GTPases.
The target of another test is Rac (activated GTPase) (UniProt P63000 1-192). The description is as above.

T1 sequence (P60953 whole entry, the tested form may be a part): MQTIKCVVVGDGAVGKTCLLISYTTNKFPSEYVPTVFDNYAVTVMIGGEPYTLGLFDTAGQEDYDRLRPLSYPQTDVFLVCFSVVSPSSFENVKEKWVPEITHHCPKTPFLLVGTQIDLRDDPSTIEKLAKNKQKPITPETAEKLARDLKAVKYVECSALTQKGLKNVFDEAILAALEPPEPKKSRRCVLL
Chain of RhoA (activated GTPase) (P61586 whole entry): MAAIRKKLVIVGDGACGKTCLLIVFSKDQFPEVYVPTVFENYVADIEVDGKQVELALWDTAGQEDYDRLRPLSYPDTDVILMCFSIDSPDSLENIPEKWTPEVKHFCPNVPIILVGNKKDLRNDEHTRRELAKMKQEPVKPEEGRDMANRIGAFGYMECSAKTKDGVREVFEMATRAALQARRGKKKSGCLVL

B1: Wiskott Aldrich Syndrome Protein (WASP) fragment, residues 201-320, F271C, labeled with S-SO dye 2e (other)
chain: DIQNPDITSSRYRGLPAPGPSPADKKRSGKKKISKADIGAPSGFKHVSHVGWDPQNGFDVNNLDPDLRSLCSRAGISEAQLTDAETSKLIYDFIEDQGGLEAVRQEMRRQEPLPPPPPPS
notes: also called labeled WASP fragment; WASP conjugate; not shown: C-terminal 6His fusion from pET23a
As to B1, in test [1], the “change in fluorescence intensity” value stood at 3 fold. Also, the Kd in test [2] came to 150 nM.

B2: WASP fragment F271C labeled with I-SO dye (other)
chain: DIQNPDITSSRYRGLPAPGPSPADKKRSGKKKISKADIGAPSGFKHVSHVGWDPQNGFDVNNLDPDLRSLCSRAGISEAQLTDAETSKLIYDFIEDQGGLEAVRQEMRRQEPLPPPPPPS
notes: also called I-SO-WASP biosensor; I-SO labeled WASP fragment; not shown: C-terminal 6His fusion from pET23a
With B2, in test [1], the “increase in fluorescence intensity” value was determined as 2.8 fold. Besides, the binding result with RhoA (activated GTPase) and in the test with Rac (activated GTPase) was “no binding” each time.
